Data reported in patent US7329737 (DYAX, dated 2008).
Each block holds one binder with its values, some of them ahead of it.

Legend:
[1] = molecular target: T1, hK1 (human tissue kallikrein 1), recombinant (human, UniProt P06870 25-262); test: SPR
T1 construct: Expressed in P. pastoris from KLK1 cDNA and purified; enzymatically active; also called KLK1; Recombinant (Pichia) Kallikrein

[2] = molecular target: T1, hK1 (human tissue kallikrein 1), …; test: cell-based or functional assay
[3] = molecular target: Human Tissue Kallikrein 2 (hK2) (human, UniProt P20151 25-261); test: protease inhibition assay, Fab up to 1 µM;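 also: protease and Fab preincubated 1 h at room temperature, then substrate added, fluorescence plate-reader monitoring of substrate hydrolysis rate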
Method: (§1) Selected antibodies were tested for their ability to inhibit other proteases.
(§2) Assays were performed in black, 96 well, round bottomed microplates in a total volume of 100 μL. Enzyme and Fab inhibitor were incubated in the dark at room temperature for 1 hour prior to the addition of the indicated amount of substrate. The rate of enzymatic substrate hydrolysis was then monitored using the Spectramax Gemini XS fluorescence plate reader using the wavelengths listed in Table 3.

[4] = molecular target: Human Tissue Kallikrein 3 (hK3, PSA) (human, UniProt P07288 25-261); test: protease inhibition assay, Fab up to 1 µM;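 also: protease and Fab preincubated 1 h at room temperature, then substrate added, fluorescence plate-reader monitoring of substrate hydrolysis rate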
Method: as §1, §2

[5] = molecular target: Human Tissue Kallikrein 4 (hK4) (human, UniProt Q9Y5K2 31-254); test: protease inhibition assay, Fab up to 1 µM;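 also: protease and Fab preincubated 1 h at room temperature, then substrate added, fluorescence plate-reader monitoring of substrate hydrolysis rate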
Method: as §1, §2

[6] = molecular target: Human Tissue Kallikrein 5 (hK5) (human, UniProt Q9Y337 67-293, limits assumed); test: protease inhibition assay, Fab up to 1 µM;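 also: protease and Fab preincubated 1 h at room temperature, then substrate added, fluorescence plate-reader monitoring of substrate hydrolysis rate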
Method: as §1, §2

[7] = molecular target: T2, Human Tissue Kallikrein 8 (hK8) (human, UniProt O60259 33-260); test: protease inhibition assay, Fab up to 1 µM
T2 sequence (looked up): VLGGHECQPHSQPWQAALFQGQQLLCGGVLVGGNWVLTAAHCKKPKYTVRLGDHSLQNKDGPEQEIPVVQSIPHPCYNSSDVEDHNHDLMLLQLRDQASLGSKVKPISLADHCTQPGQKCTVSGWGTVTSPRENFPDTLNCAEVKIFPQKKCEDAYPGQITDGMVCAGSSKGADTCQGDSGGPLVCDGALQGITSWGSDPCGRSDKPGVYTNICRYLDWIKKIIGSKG
Method: as §1, §2

Human plasma kallikrein = Human plasma kallikrein (human, UniProt P03952 20-638); test: protease inhibition assay, Fab up to 1 µM
Method: as §1, §2

Human plasmin = Human plasmin (human, UniProt P00747 97-810); test: protease inhibition assay, Fab up to 1 µM
Method: as §1, §2

Human urokinase = Human urokinase (human, UniProt P00749 21-431, limits assumed); test: protease inhibition assay, Fab up to 1 µM
Method: as §1, §2

Human trypsin = molecular target: T3, Human trypsin (human, UniProt P07477 24-247); test: protease inhibition assay, Fab up to 1 µM
T3 construct: also called Human Pancreatic Trypsin
Method: as §1, §2

Human elastase = molecular target: T4, Human elastase (human, UniProt P08246 30-247); test: protease inhibition assay, Fab up to 1 µM
T4 construct: also called Human Neutrophil Elastase
T4 sequence (looked up): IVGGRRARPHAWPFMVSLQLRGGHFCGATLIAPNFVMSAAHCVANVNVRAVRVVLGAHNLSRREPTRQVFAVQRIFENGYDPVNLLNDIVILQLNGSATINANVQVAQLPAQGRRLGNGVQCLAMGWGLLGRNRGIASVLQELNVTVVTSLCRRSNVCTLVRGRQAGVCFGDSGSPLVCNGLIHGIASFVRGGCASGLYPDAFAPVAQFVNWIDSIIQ
Method: as §1, §2

[8] = molecular target: Human activated protein kinase C (human); test: protease inhibition assay, Fab up to 1 µM
Method: as §1, §2

Human chymotrypsin = Human chymotrypsin (human, UniProt P17538 19-263); test: protease inhibition assay, Fab up to 1 µM
Method: as §1, §2

Human thrombin = Human thrombin (human, UniProt P00734 328-622); test: protease inhibition assay, Fab up to 1 µM
Method: as §1, §2

[9] = molecular target: T1, hK1 (human tissue kallikrein 1), …; test: enzyme inhibition, tight-binding analysis, competitive; Fab
[10] = molecular target: T1, hK1 (human tissue kallikrein 1), …; test: SPR, biotinylated hK1 on streptavidin chip; Fab 50 nM after DX-2300 50 nM (competitor DX-2300)
From the text: Epitope grouping by SPR. Biotinylated hK1 was captured on a streptavidin coated chip to a final ligand density of 88 RU. […] The signal at the end of the injection of the Fab alone is R2.

[11] = molecular target: T1, hK1 (human tissue kallikrein 1), …; test: enzyme inhibition, tight-binding analysis, noncompetitive; Fab
[12] = molecular target: kallikrein-like activity in sheep urine (tissue kallikrein, K1) (sheep); test: cell-based or functional assay

Sequence of Human Tissue Kallikrein 5 (hK5) (Q9Y337 67-293 limits assumed): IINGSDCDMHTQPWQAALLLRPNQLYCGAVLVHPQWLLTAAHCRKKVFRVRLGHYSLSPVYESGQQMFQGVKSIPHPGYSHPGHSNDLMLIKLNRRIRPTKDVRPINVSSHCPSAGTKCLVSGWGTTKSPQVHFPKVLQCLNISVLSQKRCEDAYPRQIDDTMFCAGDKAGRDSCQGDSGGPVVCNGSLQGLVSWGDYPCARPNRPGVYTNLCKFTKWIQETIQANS
Sequence of Human Tissue Kallikrein 2 (hK2) (P20151 25-261 limits assumed): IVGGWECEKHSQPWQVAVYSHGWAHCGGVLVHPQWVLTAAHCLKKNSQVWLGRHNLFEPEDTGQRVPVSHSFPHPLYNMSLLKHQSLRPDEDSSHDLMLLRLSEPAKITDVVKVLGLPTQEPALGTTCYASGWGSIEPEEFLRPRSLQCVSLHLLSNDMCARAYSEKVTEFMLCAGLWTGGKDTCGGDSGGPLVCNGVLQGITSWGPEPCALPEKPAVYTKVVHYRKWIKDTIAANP
Sequence of Human chymotrypsin (P17538 19-263): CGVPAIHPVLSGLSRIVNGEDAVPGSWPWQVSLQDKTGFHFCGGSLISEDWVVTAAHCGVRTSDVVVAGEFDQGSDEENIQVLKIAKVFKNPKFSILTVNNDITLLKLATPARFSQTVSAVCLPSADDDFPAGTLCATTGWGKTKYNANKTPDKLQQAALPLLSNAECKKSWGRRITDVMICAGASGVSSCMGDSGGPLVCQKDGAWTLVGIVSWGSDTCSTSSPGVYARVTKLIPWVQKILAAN
Sequence of Human Tissue Kallikrein 4 (hK4) (Q9Y5K2 31-254 limits assumed): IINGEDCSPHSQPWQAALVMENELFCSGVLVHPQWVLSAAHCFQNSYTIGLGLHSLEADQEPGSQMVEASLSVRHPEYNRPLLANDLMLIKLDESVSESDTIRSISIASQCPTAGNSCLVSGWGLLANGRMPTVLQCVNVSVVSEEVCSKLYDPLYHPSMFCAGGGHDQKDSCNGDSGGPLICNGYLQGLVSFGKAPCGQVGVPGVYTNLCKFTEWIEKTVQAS
Sequence of Human plasmin (P00747 97-810 limits assumed): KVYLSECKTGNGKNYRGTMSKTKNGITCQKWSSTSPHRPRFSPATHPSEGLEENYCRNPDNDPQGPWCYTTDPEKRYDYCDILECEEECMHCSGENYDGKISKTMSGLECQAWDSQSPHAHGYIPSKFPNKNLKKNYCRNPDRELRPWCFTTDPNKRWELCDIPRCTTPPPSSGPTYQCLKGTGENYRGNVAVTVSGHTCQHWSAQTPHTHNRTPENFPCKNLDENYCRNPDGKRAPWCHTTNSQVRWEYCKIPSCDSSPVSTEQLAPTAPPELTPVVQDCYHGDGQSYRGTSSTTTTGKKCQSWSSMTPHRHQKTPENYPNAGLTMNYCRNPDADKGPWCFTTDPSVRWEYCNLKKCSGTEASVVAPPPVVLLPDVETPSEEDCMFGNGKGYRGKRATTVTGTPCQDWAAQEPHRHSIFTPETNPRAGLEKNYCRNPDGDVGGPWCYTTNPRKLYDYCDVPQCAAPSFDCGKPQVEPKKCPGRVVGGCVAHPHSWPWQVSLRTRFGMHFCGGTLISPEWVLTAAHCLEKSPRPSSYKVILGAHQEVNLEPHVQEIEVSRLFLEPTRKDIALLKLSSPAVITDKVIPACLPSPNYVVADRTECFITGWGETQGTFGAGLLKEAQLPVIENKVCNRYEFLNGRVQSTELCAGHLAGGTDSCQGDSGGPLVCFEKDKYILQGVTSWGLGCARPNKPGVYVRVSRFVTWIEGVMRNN
Sequence of Human Tissue Kallikrein 3 (hK3, PSA) (P07288 25-261 limits assumed): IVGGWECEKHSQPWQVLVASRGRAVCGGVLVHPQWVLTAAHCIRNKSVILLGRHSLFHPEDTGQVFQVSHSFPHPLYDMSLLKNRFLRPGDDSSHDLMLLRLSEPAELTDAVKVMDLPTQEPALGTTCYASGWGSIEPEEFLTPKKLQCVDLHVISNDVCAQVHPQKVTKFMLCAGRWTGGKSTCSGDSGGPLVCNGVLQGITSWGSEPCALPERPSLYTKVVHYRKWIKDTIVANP
Sequence of Human plasma kallikrein (P03952 20-638 limits assumed): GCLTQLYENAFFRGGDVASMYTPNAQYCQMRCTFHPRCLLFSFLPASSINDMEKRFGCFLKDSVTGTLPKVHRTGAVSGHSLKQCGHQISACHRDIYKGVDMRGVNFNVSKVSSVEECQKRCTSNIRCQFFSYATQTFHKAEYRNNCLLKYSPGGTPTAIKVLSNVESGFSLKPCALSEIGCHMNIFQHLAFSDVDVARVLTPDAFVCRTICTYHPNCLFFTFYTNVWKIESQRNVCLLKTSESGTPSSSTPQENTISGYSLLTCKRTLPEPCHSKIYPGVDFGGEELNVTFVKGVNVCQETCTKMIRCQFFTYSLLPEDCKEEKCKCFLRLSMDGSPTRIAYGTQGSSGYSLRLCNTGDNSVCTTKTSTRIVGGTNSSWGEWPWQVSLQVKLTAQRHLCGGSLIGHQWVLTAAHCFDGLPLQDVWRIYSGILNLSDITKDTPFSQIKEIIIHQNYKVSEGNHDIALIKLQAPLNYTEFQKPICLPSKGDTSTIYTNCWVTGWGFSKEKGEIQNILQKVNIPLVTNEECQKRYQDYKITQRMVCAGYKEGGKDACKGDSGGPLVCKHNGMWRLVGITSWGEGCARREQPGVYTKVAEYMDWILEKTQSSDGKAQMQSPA
Sequence of Human activated protein kinase C (human) (P04070 43-197, chain 1 of 2): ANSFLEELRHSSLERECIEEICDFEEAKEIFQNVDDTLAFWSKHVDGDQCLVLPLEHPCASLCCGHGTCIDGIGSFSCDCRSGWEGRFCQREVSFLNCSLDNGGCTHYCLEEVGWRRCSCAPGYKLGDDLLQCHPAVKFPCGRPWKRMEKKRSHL
Sequence of Human activated protein kinase C (human) (P04070 212-461, chain 2 of 2): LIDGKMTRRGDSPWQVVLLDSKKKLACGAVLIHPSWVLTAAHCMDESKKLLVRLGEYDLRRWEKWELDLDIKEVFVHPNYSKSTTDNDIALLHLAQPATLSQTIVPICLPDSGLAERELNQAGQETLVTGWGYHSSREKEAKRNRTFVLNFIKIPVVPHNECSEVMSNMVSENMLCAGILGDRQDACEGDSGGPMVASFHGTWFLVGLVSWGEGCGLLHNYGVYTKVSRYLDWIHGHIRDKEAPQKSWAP

B1: M0137-E01 (Fab, V domains shown)
VH: EVQLLESGGGLVQPGGSLRLSCAASGFTFSRYSMTWVRQAPGKGLEWVSSIYPSGGKTTYADSVKGRFTISRDNSKNTLYLQMNSLRAEDTAVYYCASMVAPYYYDSSGYPPAEYFQHWGQGTLVTVSS
VL: AQSELTQPPSASGTPGQRVTISCSGTNSNIGSNSVFWYQQLSGTAAPKVLILRNSQRPSGVSDRFSGSKSGTSASLAISGLRSEDEADYYCATWDDSLRSPVFGGGTKLTVLG
notes: also called M137-E01
Kd [1]: 1.29 nM
koff [1]: 0.000158 s⁻¹
kon [1]: 123000 M⁻¹ s⁻¹
IC50 (nM), inhibition of hK1 hydrolysis of Pro-Phe-Arg-AMC [2]: 0.4 nM
Ki [3]: > 1000 nM
Ki [4]: > 1000 nM
Ki [5]: > 1000 nM
Ki [6]: > 1000 nM
Ki [7]: > 1000 nM
Ki (Human plasma kallikrein): > 1000 nM
Ki (Human plasmin): > 1000 nM
Ki (Human urokinase): > 1000 nM
Ki (Human trypsin): > 1000 nM
Ki (Human elastase): > 1000 nM
Ki [8]: > 1000 nM
Ki (Human chymotrypsin): > 1000 nM
Ki (Human thrombin): > 1000 nM
Ki [9]: 0.9 nM
Fab Signal following DX-2300 (R1) [10]: 20.8

B2: M0093-F09 (Fab, V domains shown)
VH: EVQLLESGGGLVQPGGSLRLSCAASGFTFSDYRMWWVRQAPGKGLEWVSYIVPSGGQTSYADSVKGRFTISRDNSKNTLYLQMNSLRAEDTAVYYCARGSAYQRRTYSSGWYSASGRRGTAEYFQHWGQGTLVTVSS
VL: AQSALTQPASVSGSPGQSITISCTGTSTDDVGGYNYVSWYQQHPGKAPKLMIYDVINRPSGVSNRFSGSKSGNTASLTISGLQAEDEADYYCSSYTSRGTRVFGTGTKVTVLG
notes: also called M093-F09
Kd [1]: 4.66 nM
koff [1]: 0.00279 s⁻¹
kon [1]: 600000 M⁻¹ s⁻¹
IC50 (nM), inhibition of hK1 hydrolysis of Pro-Phe-Arg-AMC [2]: 2.5 nM
Ki [3]: > 1000 nM
Ki [4]: > 1000 nM
Ki [5]: > 1000 nM
Ki [6]: > 1000 nM
Ki [7]: > 1000 nM
Ki (Human plasma kallikrein): > 1000 nM
Ki (Human plasmin): > 1000 nM
Ki (Human urokinase): > 1000 nM
Ki (Human trypsin): > 1000 nM
Ki (Human elastase): > 1000 nM
Ki (Human chymotrypsin): > 1000 nM
Ki (Human thrombin): > 1000 nM
Ki [11]: 1.9 nM
Fab Signal following DX-2300 (R1) [10]: 5.9

More lines, now with the values ahead:

IC50 of kallikrein-like activity in activated urine (Pro-Phe-Arg-AMC) [12]: 2.9 nM
B3: DX-2300 (format not stated) (antibody, V domains shown)
VH: EVQLLESGGGLVQPGGSLRLSCAASGFTFSKYKMVWVRQAPGKGLEWVSSIYPSGGITAYADSVKGRFTISRDNSKNTLYLQMNSLRAEDTAMYYCAKDITPGGGSGFRLPKNYYYYGMDVWGQGTTVTVSS
VL: not shown

Ki [3]: > 1000 nM
Ki [4]: > 1000 nM
Ki [5]: > 1000 nM
Ki [6]: > 1000 nM
Ki [7]: > 1000 nM
Ki (Human plasma kallikrein): > 1000 nM
Ki (Human plasmin): > 1000 nM
Ki (Human urokinase): > 1000 nM
Ki (Human trypsin): > 1000 nM
Ki (Human elastase): > 1000 nM
Ki [8]: > 1000 nM
Ki (Human chymotrypsin): > 1000 nM
Ki (Human thrombin): > 1000 nM
B4: DX-2300 (M0131-F07), Fab (Fab, V domains shown)
VH: B3 VH
VL: not shown
